*1 amine or outer side, *2 acyl side, *3 side chain or, on linkers, in order; H or OH if unused. Where no end group is shown, it is not given here. Side-chain parts run from the residue outwards. [ ]: non-standard residue; d: D form. The star is where a group is joined. γGlu = O=C(O)[C@H](CCC(=O)[*:2])N[*:1]; Palmitoyl = CCCCCCCCCCCCCCCC(=O)*; Nle = CCCC[C@H](N)C(=O)O; Ac4c = NC1(C(=O)O)CCC1; Aib = CC(C)(N)C(=O)O
Key:
human glucagon receptor = human glucagon receptor (human, UniProt P47871 26-477); assay: cell-based or functional assay
[1] = target: human glucagon-like peptide 1 receptor (human, UniProt P43220 24-463); assay: cell-based or functional assay

Chain of human glucagon receptor (P47871 26-477): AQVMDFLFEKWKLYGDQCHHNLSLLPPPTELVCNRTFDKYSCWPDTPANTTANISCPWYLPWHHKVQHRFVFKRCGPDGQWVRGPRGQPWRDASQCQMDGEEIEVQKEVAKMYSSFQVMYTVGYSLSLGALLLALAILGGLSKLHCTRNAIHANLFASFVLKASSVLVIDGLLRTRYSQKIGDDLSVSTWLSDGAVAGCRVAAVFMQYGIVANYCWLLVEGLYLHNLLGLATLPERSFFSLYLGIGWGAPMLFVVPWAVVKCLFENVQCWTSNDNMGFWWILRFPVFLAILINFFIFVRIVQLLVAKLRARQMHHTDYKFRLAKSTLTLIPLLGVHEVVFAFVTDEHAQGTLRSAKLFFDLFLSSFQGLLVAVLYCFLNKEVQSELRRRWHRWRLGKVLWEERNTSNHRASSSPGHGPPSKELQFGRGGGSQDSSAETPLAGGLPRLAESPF

Binder	GCGR EC50 (nM) human; cAMP production (HitHunter cAMP XS) in cells expressing human GCGR, 20% human serum (human glucagon receptor)	GLPR1 EC50 (nM) human; cAMP production (HitHunter cAMP XS) in cells expressing human GLP-1R, 20% human serum [1]
H[dS]QGTFTSDK([γGlu-γGlu-Palmitoyl])SKYLDVRRAQDFVQWLLDT-NH2 (not fully specified; printed as HsQGTFTSDK(γEγEC16)SKYLDVRRAQDFVQWLLDT-NH2) [Co-agonist Peptide 2]	0.041 nM	0.16 nM
H[Aib]VGTFTSDK([γGlu-γGlu-Palmitoyl])SKYLD[Aib]RAAQDFVQWL[Nle]DT-NH2 [Co-agonist Peptide 4]	0.89 nM	0.1 nM
HXQGTXTSDKSKYLDERAAQDFVQWLLDT (not fully specified; X2 = D-Ser; X6 = threo-β-Phenylserine (tβP); K10 conjugated to γEγEC16; C-terminal amide) [Co-agonist Peptide 14]	1.04 nM	1.02 nM
H[dS]QGTFTSDK([γGlu-γGlu-Palmitoyl])SKYLDVRAAQDFVQWLLDT-NH2 (N-terminus assumed; SMILES CCCCCCCCCCCCCCCC(=O)N[C@@H](CCC(=O)N[C@@H](CCC(=O)NCCCC[C@H](NC(=O)[C@H](CC(=O)O)NC(=O)[C@H](CO)NC(=O)[C@@H](NC(=O)[C@H](Cc1ccccc1)NC(=O)[C@@H](NC(=O)CNC(=O)[C@H](CCC(N)=O)NC(=O)[C@@H](CO)NC(=O)[C@@H](N)Cc1c[nH]cn1)[C@@H](C)O)[C@@H](C)O)C(=O)N[C@@H](CO)C(=O)N[C@@H](CCCCN)C(=O)N[C@@H](Cc1ccc(O)cc1)C(=O)N[C@@H](CC(C)C)C(=O)N[C@@H](CC(=O)O)C(=O)N[C@H](C(=O)N[C@@H](CCCNC(=N)N)C(=O)N[C@@H](C)C(=O)N[C@@H](C)C(=O)N[C@@H](CCC(N)=O)C(=O)N[C@@H](CC(=O)O)C(=O)N[C@@H](Cc1ccccc1)C(=O)N[C@H](C(=O)N[C@@H](CCC(N)=O)C(=O)N[C@@H](Cc1c[nH]c2ccccc12)C(=O)N[C@@H](CC(C)C)C(=O)N[C@@H](CC(C)C)C(=O)N[C@@H](CC(=O)O)C(=O)N[C@H](C(N)=O)[C@@H](C)O)C(C)C)C(C)C)C(=O)O)C(=O)O) [Co-agonist Peptide 3]	0.08 nM	0.13 nM
H[Ac4c]QGTFTSDK([γGlu-γGlu-Palmitoyl])SKYLDERAAQDFVQWLLDT-NH2 (N-terminus assumed; SMILES CCCCCCCCCCCCCCCC(=O)N[C@@H](CCC(=O)N[C@@H](CCC(=O)NCCCC[C@H](NC(=O)[C@H](CC(=O)O)NC(=O)[C@H](CO)NC(=O)[C@@H](NC(=O)[C@H](Cc1ccccc1)NC(=O)[C@@H](NC(=O)CNC(=O)[C@H](CCC(N)=O)NC(=O)C1(NC(=O)[C@@H](N)Cc2c[nH]cn2)CCC1)[C@@H](C)O)[C@@H](C)O)C(=O)N[C@@H](CO)C(=O)N[C@@H](CCCCN)C(=O)N[C@@H](Cc1ccc(O)cc1)C(=O)N[C@@H](CC(C)C)C(=O)N[C@@H](CC(=O)O)C(=O)N[C@@H](CCC(=O)O)C(=O)N[C@@H](CCCNC(=N)N)C(=O)N[C@@H](C)C(=O)N[C@@H](C)C(=O)N[C@@H](CCC(N)=O)C(=O)N[C@@H](CC(=O)O)C(=O)N[C@@H](Cc1ccccc1)C(=O)N[C@H](C(=O)N[C@@H](CCC(N)=O)C(=O)N[C@@H](Cc1c[nH]c2ccccc12)C(=O)N[C@@H](CC(C)C)C(=O)N[C@@H](CC(C)C)C(=O)N[C@@H](CC(=O)O)C(=O)N[C@H](C(N)=O)[C@@H](C)O)C(C)C)C(=O)O)C(=O)O) [Co-agonist Peptide 13]	0.06 nM	0.05 nM

Reference: patent publication US20170360893A1 (Merck Sharp & Dohme, published 2017)
